Experiment: yeast display, Sf9 membrane polyspecificity reagent, FACS + sequencing; frameworks hold sequencing errors
Outline: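 Synthetic nanobody libraries on Saccharomyces cerevisiae BJ5465 were galactose-induced for 36–48 hours, stained 1 hour at 4 °C with 10% biotinylated, detergent-solubilized Sf9 membrane reagent and enriched on streptavidin microbeads. FACS then separated cells into low and high (top ~1%) gates by anti-HA (expression) and streptavidin (reagent binding) fluorescence. Genes were colony-PCR amplified, MiSeq 2 × 250 sequenced and CDR-length filtered. A clone's polyreactivity label is that of its gate of origin.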

Row | Sequence | polyreactivity (PSR sort gate)
1 | QVQLVESGGGLVQAGGSLRLSCAPSGSTFRRNTMGWYRQAPGKARELVAGISSSGGSTYYADSVKGRFTISRDNAKNTVYLQMNSLKPEDTAVYYCAARFYVSYVGYNYWGQGSQVTVSS | high polyreactivity
2 | QVQLVESGAGLVHAGGSLRLCCAASGRIFNGYSMGWYRQAPGKERELVAGISYSGGSTYYADSVKGRFTISRDNAKNTVYLQMNSQKPEETAVYYCAKRPYYLGNRYRFDYWGQGTQVSVSS | high polyreactivity
3 | QVQLVESGGGLVQAGGSLRLSCAASGGISLYYVMGWYRQAPGKERELVADISADDSTNYADSVKGRFTISRDNAKNTVYLQMNSLKPEDTAVYYCAAVPGLFYLPYDYWGQGTQVTVSS | low polyreactivity
4 | QVQLVESGGGLVQAGGSLRLSCASSGRTFWYYAMGWYRQPPGKERELVAAITSGGSTNYADSVKGRFTISRDNAKNTVYLQMNSLKPEDTAVYYCATDNPVFEYDYWGQGTQVTVSS | low polyreactivity
5 | QVQLVESGGGLVQAGGRLRLSCAASGSTFFAYAMGWYRQAPGKQRELVAAITGRGSTYYADSVKGRFTISRDNAKNTVYLQMNSLKAEDTAVYYCAAQRSRRYYRLDFWGQGTQVTVSS | high polyreactivity
6 | QVQLVESGGGLVQAGGSLRLSCAASGTFVTYMGLYRQAPGKERELVAAIRNGGSTNYADSVKGRFTISRDNAKNTVYLQMNSLKPEDTAVDYFTADYTYWNGWFATRDYWGQGTQVTVSS | low polyreactivity
7 | QVQLVESGGGLVQAGGSLRLSCAASGNTFGNYGKGWYRQAPGKEREFVAAITSRGTSTYYADSVKGRFTISRDNAKNTVYLQMNSLKPEDTAVYYCNARPRYKYPRYDYWGQGTQVTVSS | high polyreactivity
8 | QVQLVESGGGLVQAGGSLRLSCAASGFIFSYYVMGWYRQAPGKERELVASISARVGSTYYADSVKGRFTISRDNAKNTVYLQMNSLKPEDTAVYYCNTARVKYRWYNYWGQGTQVTVSS | high polyreactivity
9 | QVQLVESGGGLVQAGGSLRLSCAASGGIFYGYAMGWYRQAPGKERELVAAISDSGGSTYYADSVKGRFTNSRDNAKYTGYVQMNSLKPEVTAVYYCATDAPVGGYVSEGDYWGQGTQVTVSS | low polyreactivity
10 | QVQLVESGGGLVQAGGSLRLSCAASGSTSVGNAMGWSRQAPGKERELVAAISRIGGTTYYADSVKGRFTISRDNAKNTVYLQMNSLKPEDPAVYYCNVLKRYWSGRVDYWGQGTQVTVSS | high polyreactivity
11 | QVQLVESGGGLVQAGGSLRLSCAASGRIFRSNGMGWYRQAPGKERELVAAITYRGGNTYYADSVKGRFTISRDNAKNTVYFQMNSLKPEDTAVYYCANQGVRRHYGYDYWGQGTQVTVSS | high polyreactivity
12 | QVQLLESGGGLVQAGGSLRLRCAASGFTFRKYTMGWYRQAPGKERELVAAISSGVSTNYADSVKGRFTISRDNAKKTVYLQMNSLKAEDTAVYYCAARGGYYQGRYKYGYWGQGTQVTVSS | high polyreactivity
13 | LVQLVESGGGLVQAGGSLRLSCAASGFTFPDYAMGWYRPAPGKERELVAAISSDGSTYYADSVKGRFTISRDNAKNTVYLQMNSLKPEDTAVYYCAAYVVWLYGYDYWGQGTQVTVSS | low polyreactivity
14 | QVQLVESGGGLVQAGGSLRLSCAASGSTLNSYAMGLYRQAPGKDRELVAAISWSGGSTYYADSVKGRFSISRDNAKNTVYLQMNSVKAEDTAVYYCNAAFWWDYAYGVDYWGQGTQVTVSS | low polyreactivity
15 | QVQLVESVGGLVQAGGSLRLSCAASGSTFIIYAMGWYRQAPGKERELVATISTRGTSTYYADSVKGRFTISRDNEKNTVYLQMKSLKPEDTAVYYCNARRRGYGNRYTFDYWGQGTQVTVSS | high polyreactivity
16 | QVQLVESGGGLVQAGGSLRLSCAASGGTFRYYTMVWYRQAPGKERELVAAITRGGRTYYADSVKGRFTISRDNAKNTVYIQMNSLKPEDTAVYYCAAVRPRSPVSYENDYWGQGTQVTVSS | high polyreactivity
17 | QVQLVESGGGLVQAGGSLRLTCAASGRTFQYYAMGWYRQAPGKERELVAAISQDGGSTYYADSVKGRFTISRDNSKNSVYLQMNSLKPEDTAVYYCAARVDEYAYYALDDYWGQGTQVTVSS | low polyreactivity
18 | QVQLVESGGGLVQAGGSLRLSCAASGRTISFYAMGWYRQAPGKERELVAAISRSGGSTYYADSVKGRFTISRDNAKNTVYLQMNSLKPEDTAVYYCAARDQYRWYKYDYWGQGTQVTVSS | high polyreactivity
19 | QVQLVESGGGLVQAGGSLRLSCAASGSIFGRYAMGWYRQAPGKERELVAAITYRGGTTYYADSVKGRFTISRDNAKNTVYLQMNSLKPEDTAVYYCAAEGTWYYKYGYFAYYYWGQGTQVTVSS | low polyreactivity
20 | QVQLVESGGGLVQAGGSLRLSCAASGRTFSHYAMGWYRQAPGKVRELVADISWNGGRTYYADSVKGRFTISRDNAKNTVYLQMNSLKPEDTAVYYCAKVRYWAWSYEYWGQGTQVTVSS | high polyreactivity
21 | QVHLVESGGGLVQAGGSLRLSCAPSGSIFRNYAMGWYRQAPGKESELVATISGRGGRTYYEDSVKGRFTISRDNAKNTVYLQMNSLKPEDTAVYYCAARGTLGKYSTASVYSGQGTQVTVSS | high polyreactivity
22 | QVQLVESGGGLVQAGGSLRLSCAASGSIFVDNAMGWYRQAPGKERELVAVITLRSGSTNYADSVKGRFTISRDNAKNTVYLQMNSLKPEDTAVYYCAADDTYHDYQRDTDDDYWGQGTQVTVSS | low polyreactivity

Row | Sequence | polyreactivity (PSR sort gate)
23 | QVQLVESGGGLVQAGGSLRLSCAASGITFWGYAMGWYRQAPGKEREFVARINWSGGRTYYAESVKGRFTISRDNAKNTVYLQMNSLKPEDTAVYYCNVVLRSVVSGDYWVQGTQVTVSS | high polyreactivity
24 | QVQLVESGGGLVQAGGSLRLSCAASGFIFYDYAMGWYRQAPGKERELVAVITSGGSTYYADSVKGRFTISRDNAKNTVYLQMNSLKPEDTAVYYCNADWVFTWYDYPNDKYDYWGQGTQVTVSS | low polyreactivity
25 | QVQLVESGGGLVQEGGSLRISCAASGRIFYYYVMGGYRQAPGKERELVAGITSRGRTYYADSVKGRFTISRDNAKNTVYLQMNSLKPEVTAVYDCNKVGATWRQWFGYWGQGTQVTVSS | high polyreactivity
26 | QVQLVESGGGLVQAGGSLRLSCAASGRTFAYYAMGWYRQAPGTERELVAGITYSGGRTYYADSVKGRFTISRDNAKNTVYLQMNSLKPEDTAVYYCATRWPSKPTSRAMYYWGQGTQVTVSS | high polyreactivity
27 | QVQLVESGGGLGQAGGSLRLTCAASGSTFWYYAMGWYRQAPGKERELVAAITSGDSTYYADSVKGRFTISRDNAKKTVYLQMNSLKPEDTAVYYCAADLPWEDGYYFYSGYTEYDYWGQGTQVTVSS | low polyreactivity
28 | QVQLVESGGGLVQAGGSLRLSCAASGSTFYGNAMVWYRQAPGKERELVARITTSGSTYYADSVKGRFTISRDNAKNTVYLQMNSLKPEDTAVYYCAKRGYGPSIRYYYWGHGTQVTVSS | high polyreactivity
29 | QVQLVESGGGLVQAGGSLRLSCAASGITFYRNAMGWYRQAPGKERELVAAIDVGDGTYYADSVKGRFTISRDNAKNSVYFQMNSLKPEDTAVYYCNKTFLFLEYDSWGQGTQVTVSS | low polyreactivity
30 | QVQVESGGGLVQAGGSLRLSCGASGSIIDQYVMGWYRQAPGKERELVAAISRGGRTYYADSVKGRFTISRDNAKNTVYLQMNSLNPEDTAVYYCATGYGPYLGRPHLTLYYYWGQGTQVTVSS | low polyreactivity
31 | QVQLVESGGGLVQAGGSLRLSCAASGSTFLYYAMGWYRQAPRKESELVATITDGGSTNYSDSVKGRFTISRDNAKNTVDLQMNSLKPEDTAVYYCAKRQWRPTYRYGYWGQGTQVTVSS | low polyreactivity
32 | QVQVVESGGGLVQAGGSLRISCAASGSIFPGYDMGWYRQAPGKERELVAAIRTSGGSTNYADSVKGRFTISRDNAKNTVYLQMNSLKPEDTAVYYCAARTNSPRGTKRYYWGQGTQVTVSS | high polyreactivity
33 | QVQLVESGGGLVQAGGSLRLSCAASGYTFASNAMGWYRQAPGKERELVAAITRGGSTNYADSVKGRFTISRDNAKNTVYLQMNSLKPEDTAVYYCAAPRYRHTRKGGYWGQGTQVTVSS | low polyreactivity
34 | QVQLVESGGGLVQAGGSLRLSCAASGRTFGRYAMGWYRQAPGKERELVAAINRGGSTKYADSVKGRFTISRDNAKNTVYLQRNSQKPEDSAVYYCAKDLHPALHYDYWGQGTQVTVSS | low polyreactivity
35 | QVQLVESGGGLVQAGGSLRLSCAASGSIFRYYVMGWYRQAPGKERELVAAITGGGGSTYYADSVKGRFTISRDNAKNTVYLQMNSLKPEDTAVYYCATATYVGVYWEYDYWGQGTQVTVSS | low polyreactivity
36 | QVQLVESGGGLVQAGGSLRLSCAASGFTFHYYTMAWYRQAPGKEREFVAAMSKSGGRTYYADSVKGRFTISRDKAKNTVYLQMNSLKPEDTAVYYCSTVGYWRNRHDYWGQGTQVTVSS | high polyreactivity
37 | QVQLVESGGGLVQAGGSLRLSCAASGFIFYPYAMGWYRQATGKETELVAAITWSGGTTTYADSEKGRFTISRDNAKNTVYLQMNSLKPEDTAVYSCAALWYYGRYPYDYWGQGTQVTVSS | high polyreactivity
38 | QVHLVESGGGLVQAGGSLRLSCAASGRIFSLNAMGCDRQAPGKERELVAAISTGGASTYYADSVKGRFTISRDNAKNTVYLQMNSLKPEDTAVYSCAADLGYEYDYWGQGTQVTVSS | high polyreactivity
39 | QVQLVESGGGLVQAGGSLRLICAASGSIFLYYAMGWYRQAPGKEMELVAAITSTGSTYYADSVKGRFTISRDNAKNTVYLQMNSLKPEDTAVYYCAAELRRLFYAYGYWGQGTQVTVSS | low polyreactivity
40 | QVQLVESGGGLVQAGGSLRLSCAASGSTFRSYAMGWYRQAPGKERELVAAISSSGSRTYYADSVKGRFTISRDNAKNTVYLQMNSLKPEDTAVYYCAADYYYNTKLDYWGQGTQVTVSS | high polyreactivity
41 | QVQLVESGGGLVQAGGSLRLSCAASGITFKRNAMGWYRQAPGKERELVAAISTTGGRTYYADSVKGRFTISRDNAKNTVYLQMNSLKPEDTAVYYCAARGGPVTYDYWGQGTQVTVSS | high polyreactivity
42 | QVQLVESGGGLVQAGGSLRLSCAASGLTFYRYAMGWYRQAPGKERELVATIRSGDGTYYADSVKGRFTISRDNAMNTVYFKMNSLKPEDTAVYYCAAKKVYRVYGRYEYWGQGTQVTVSS | high polyreactivity
43 | QVQLVESGGGLVQAGGSLRLSCAASGSISKINAMGWYRQAPGKERELVAAINTGDSTYYADSVKGRFTISRDNAKNTVYLQMNSLKPEDTAVYYCAAEGSPTGYDYWGQGTQVTVSS | low polyreactivity
